Data as given in patent US20120288494A1.
pIC50: −log10 of the molar value.

Key:
IL-12 = IL-12 (UniProt P29460); test: receptor binding assay (RBA)
human IL-12 p70 (human) = human IL-12 p70 (human) (UniProt P29460); test: koff; method not given
Sequence of human IL-12 p70 (human) (P29460 23-328, chain 1 of 2): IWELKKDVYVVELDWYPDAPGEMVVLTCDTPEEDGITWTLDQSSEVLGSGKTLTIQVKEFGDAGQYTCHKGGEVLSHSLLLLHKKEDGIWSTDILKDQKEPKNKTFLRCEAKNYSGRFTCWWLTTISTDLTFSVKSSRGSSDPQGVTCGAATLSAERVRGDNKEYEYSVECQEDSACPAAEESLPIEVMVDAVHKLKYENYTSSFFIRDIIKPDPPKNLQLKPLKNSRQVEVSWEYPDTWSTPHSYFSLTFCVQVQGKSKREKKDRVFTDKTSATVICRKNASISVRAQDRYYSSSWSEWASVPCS
Sequence of human IL-12 p70 (human) (chain, as listed by the source, chain 2 of 2): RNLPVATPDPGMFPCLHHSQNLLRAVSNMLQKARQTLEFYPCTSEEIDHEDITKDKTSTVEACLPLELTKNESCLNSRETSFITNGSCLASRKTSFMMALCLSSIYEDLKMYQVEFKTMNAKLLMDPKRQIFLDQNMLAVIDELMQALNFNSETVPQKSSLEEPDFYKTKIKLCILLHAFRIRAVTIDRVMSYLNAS

Sequence of IL-12 (P29460 23-328, chain 1 of 2): as the sequence (P29460 23-328, chain 1 of 2) above
Sequence of IL-12 (P29459 23-219, chain 2 of 2, further chain): as the sequence (chain, as listed by the source, chain 2 of 2) above

pIC50 (IL-12)	fold increase in koff (against Y61) (human IL-12 p70 (human)) [fold]	Substance
10.70	–	Y61 L50Y
10.22	–	Y61 L94Y
–	2.5	Y61 with Asn-L31 mutated to aspartate (antibody)
–	8	Y61 with His-H95 mutated to glutamate (antibody)
